The test addresses human insulin receptor, B isoform (exon 11+), wild type (human, UniProt P06213). Kind of test: flow cytometry on cells. Background: In flow cytometry, cells or beads pass a laser one at a time.

B1: monoclonal antibody 83-7 against the human insulin receptor (antibody, V domains shown)
VH: QVQLKESGPGLVAPSQSLSITCTVSGFPLTAYGVNWVRQPPGKGLEWLGMIWGDGNTDYNSALKSRLSISKDNSKSQVFLKMNSLQTDDTARYYCARDPYGSKPMDYWGQGTSVTVSS
VL: DIVMSQSPSSLVVSVGEKVTMSCKSSQSLLYSSNQKNFLAWYQQKPGQSPKLLIYWASTRESGVPDRFTGSGSGTDFTLTISSVKAEDLAVYYCQQYFRYRTFGGGTKLEIK
For the molecule B1, the binding result is listed as “binds”.

B2: monoclonal antibody 83-14 against the human insulin receptor (antibody, V domains shown)
VH: QVQLQQSGPELVKPGALVKISCKASGYTFTNYDIHWVKQRPGQGLEWIGWIYPGDGSTKYNEKFKGKATLTADKSSSTAYMHLSSLTSEKSAVYFCAREWAYWGQGTLVTVSA
VL: DIQMTQSPSSLSASLGERVSLTCRASQDIGGNLYWLQQGPDGTIKRLIYATSSLDSGVPKRFSGSRSGSDYSLTISSLESEDFVDYYCLQYSSSPWTFGGGTKLEIK
In the case of B2, the binding result was “binds”.

Values taken from publication PMC12528385 (Nature Communications, 2025).
